T1: CEACAM5 (R&D Systems, 4128-CM-050) (human, UniProt P06731 35-685)
T1 construct: Immobilised on the ELISA plate; also called human CEACAM5
T1 sequence (looked up): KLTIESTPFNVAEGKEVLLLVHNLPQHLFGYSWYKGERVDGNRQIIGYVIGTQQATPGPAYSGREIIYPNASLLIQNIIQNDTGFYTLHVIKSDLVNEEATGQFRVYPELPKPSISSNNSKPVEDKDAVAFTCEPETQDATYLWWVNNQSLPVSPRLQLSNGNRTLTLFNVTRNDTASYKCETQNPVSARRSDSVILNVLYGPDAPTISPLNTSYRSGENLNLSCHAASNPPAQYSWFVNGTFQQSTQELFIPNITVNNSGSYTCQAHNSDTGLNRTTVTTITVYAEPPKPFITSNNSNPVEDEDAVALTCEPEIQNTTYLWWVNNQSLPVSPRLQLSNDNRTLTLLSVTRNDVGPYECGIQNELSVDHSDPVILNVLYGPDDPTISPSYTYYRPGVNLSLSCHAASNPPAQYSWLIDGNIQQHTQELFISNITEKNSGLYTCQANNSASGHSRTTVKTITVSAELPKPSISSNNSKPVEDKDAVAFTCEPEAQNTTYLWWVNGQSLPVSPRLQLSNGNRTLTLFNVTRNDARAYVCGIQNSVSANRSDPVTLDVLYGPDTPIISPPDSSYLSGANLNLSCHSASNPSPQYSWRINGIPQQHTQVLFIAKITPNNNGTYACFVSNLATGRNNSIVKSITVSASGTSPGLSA

B1: [Gd/DOTA-NH-CH2-(1,4-Ph)-NH-C(═O)-Met-Ile-NH-(CH2)2-Z1(#N)]p-Fab^5 (Fab, V domains shown)
VH: QVQLVQSGAEVKKPGASVKVSCKASGYTFTNYGLSWVRQAPGQGLEWMGENHPGSGIIYHNEKFRGRVTLTADRSTSTAYMELSSLRSEDTAVYYCARSSGTRGFDYWGQGTLVTVSS
VL: DVVMTQTPLSLSVTPGQPASISCRSSQSIVHSNGNTYLEWYLQKPGQSPQLLIYRVSNRFSGVPDRFSGSGSGTDFTLKISRVEAEDVGVYYCFQGSHGPWTFGQGTKLEIKR
modifications: labeling may sit on this chain; sites not stated; labeling portion (MW 1074) on amino groups of the Fab, sites and chain not stated; 1-2 per Fab by MS; Gln 1 pyroglutamic acid as Fab^5 is defined in paragraph 370
B2: Ex-No 102, conjugate of Fab^5 (structure given only as drawing CHEM-US-00161) (Fab, V domains shown)
VH: B1 VH
VL: B1 VL
modifications: labeling may sit on this chain; sites not stated; low molecular weight molecule (MW 1278) bound to the Fab, sites and chain not stated; 1-2 per Fab by MS; Gln 1 pyroglutamic acid as Fab^5 is defined in paragraph 370
B3: Ex-No 106, conjugate of Fab^5 (structure given only as drawing CHEM-US-00164) (Fab, V domains shown)
VH: B1 VH
VL: B1 VL
modifications: labeling may sit on this chain; sites not stated; low molecular weight molecule (MW 1380) bound to the Fab, sites and chain not stated; 1-3 per Fab by MS; Gln 1 pyroglutamic acid as Fab^5 is defined in paragraph 370
B4: Ex-No 103, conjugate of Fab^5 (structure given only as drawing CHEM-US-00162) (Fab, V domains shown)
VH: B1 VH
VL: B1 VL
modifications: labeling may sit on this chain; sites not stated; low molecular weight molecule (MW 1115) bound to the Fab, sites and chain not stated; 1-2 per Fab by MS; Gln 1 pyroglutamic acid as Fab^5 is defined in paragraph 370
B5: Ex-No 105, conjugate of Fab^5 (structure given only as drawing CHEM-US-00163) (Fab, V domains shown)
VH: B1 VH
VL: B1 VL
modifications: labeling may sit on this chain; sites not stated; low molecular weight molecule (MW 1190) bound to the Fab, sites and chain not stated; 1-3 per Fab by MS; Gln 1 pyroglutamic acid as Fab^5 is defined in paragraph 370
B6: [Gd/DOTA-NH—CH2-(1,3-Ph)-C(═O)-Asp-Gly-Lys*-Z2(#N)]p-Fab^2 (conjugate)
heavy: EVQLVESGGGLVQPGGSLRLSCAASGFNIRDTYMHWVRQAPGKGLEWVARIDPANGNSRYVPKFQGRFTISADTSRNTAYLQMNSLRAEDTAVYYCAPFGYYVSDYAMAYWGQGTLVTVSSASTKGPSVFPLAPSSKSTSGGTAALGCLVKDYFPEPVTVSWNSGALTSGVHTFPAVLQSSGLYSLSSVVTVPSSSLGTQTYICNVNHKPSNTKVDKKVEPKSCD
light: DIQLTQSPSSLSASVGDRVTITCRAGESVDIFGVGFLHWYQQKPGKAPKLLIYRASNLESGIPSRFSGSGSRTDFTLTISSLQPEDFATYYCQQTNEDPYTFGQGTKVEIKRTVAAPSVFIFPPSDEQLKSGTASVVCLLNNFYPREAKVQWKVDNALQSGNSQESVTEQDSKDSTYSLSSTLTLSKADYEKHKVYACEVTHQGLSSPVTKSFNRGEC
B7: [Gd/DOTA-NH—CH2-(1,3-Ph)-C(═O)-Met-Gly-Lys*-Z2(#N)]p-Fab^2 (conjugate)
heavy: B6 heavy
light: B6 light
B8: [Gd/DOTA-NH—(CH2CH2O)3—CH2—C(═O)—NH—CH2-(1,3-Ph)-C(═O)-Gly-Lys*-Z2(#N)]p-Fab^2 (conjugate)
heavy: B6 heavy
light: B6 light
B9: (Y-S1-X)p-Fab^2 with Y Gd/DOTA, S1 spacer (h), X -Met-Gly-Lys*-Z2(#N)- (Fab, V domains shown)
VH: EVQLVESGGGLVQPGGSLRLSCAASGFNIRDTYMHWVRQAPGKGLEWVARIDPANGNSRYVPKFQGRFTISADTSRNTAYLQMNSLRAEDTAVYYCAPFGYYVSDYAMAYWGQGTLVTVSS
VL: DIQLTQSPSSLSASVGDRVTITCRAGESVDIFGVGFLHWYQQKPGKAPKLLIYRASNLESGIPSRFSGSGSRTDFTLTISSLQPEDFATYYCQQTNEDPYTFGQGTKVEIKR
modifications: labeling may sit on this chain; sites not stated; labeling portion (MW 1090) on amino groups of the Fab, sites and chain not stated; 1-2 per Fab by MS
notes: also called Ex-No 43; conjugate 43
B10: (Y-S1-X)p-Fab^2 with Y Gd/DOTA, S1 - (bond), X -Gly-Tyr*-CH2-C-(═O)-Lys*-Z2(#N)- (Fab, V domains shown)
VH: B9 VH
VL: B9 VL
modifications: labeling may sit on this chain; sites not stated; labeling portion (MW 1046) on amino groups of the Fab, sites and chain not stated; 1-3 per Fab by MS
notes: also called Ex-No 4; conjugate 4
B11: [Gd/DOTA]p-Fab^2 (Fab, V domains shown)
VH: B9 VH
VL: B9 VL
modifications: labeling may sit on this chain; sites not stated; [Gd/DOTA] (MW 542) on amino groups of the Fab, sites and chain not stated; 1-2 per Fab by MS
notes: also called Ex-No 47; conjugate 47
B12: (Y-S1-X)p-Fab^2 with Y Gd/4arm-DOTA, S1 spacer (n), X -Met-Gly-Lys*-Z2(#N)- (Fab, V domains shown)
VH: B9 VH
VL: B9 VL
modifications: labeling may sit on this chain; sites not stated; labeling portion (MW 1244) on amino groups of the Fab, sites and chain not stated; 1 per Fab by MS
notes: also called Ex-No 58; conjugate 58
B13: (Y-S1-X)p-Fab^2 with Y Gd/DOTA, S1 spacer (p), X -Met-Gly-Lys*-Z2(#N)- (Fab, V domains shown)
VH: B9 VH
VL: B9 VL
modifications: labeling may sit on this chain; sites not stated; labeling portion (MW 1079) on amino groups of the Fab, sites and chain not stated; 1-3 per Fab by MS
notes: also called Ex-No 57; conjugate 57
B14: (Y-S1-X)p-Fab^2 with Y Gd/DOTA, S1 spacer (i), X -Met -Gly-Lys*-Z2(#N)- (Fab, V domains shown)
VH: B9 VH
VL: B9 VL
modifications: labeling may sit on this chain; sites not stated; labeling portion (MW 1296) on amino groups of the Fab, sites and chain not stated; 1-2 per Fab by MS
notes: also called Ex-No 45; conjugate 45

Molecular target: human cancer-specific MUC1 peptide (PTL 1) (human)
Assay: ELISA on immobilised human cancer-specific MUC1 peptide, 4-parameter fit, duplicate (Example 6-2)
Details: not given

| EC50 | Molecule |
| --- | --- |
| 0.08 nM | B1 |
| 0.07 nM | B2 |
| 0.1 nM | B3 |
| 0.08 nM | B4 |
| 0.11 nM | B5 |

Test system: not given
Assay: not given
Details: mouse, in vivo

| Molecule | % of dose/tissue (amount of Gd contained per kidney) | Proportion of decrease (amount of Gd contained in the kidneys) |
| --- | --- | --- |
| B6 | 14.8 % of dose/tissue | 52.2% |
| B7 | 15.4 % of dose/tissue | 50.3% |
| B8 | 17.1 % of dose/tissue | 44.8% |

Molecular target: T1, CEACAM5 (R&D Systems, 4128-CM-050)
Assay: ELISA on immobilised CEACAM5, 4-parameter fit, duplicate
Details: not given
Procedure: Each anti-human CEACAM5 antibody Fab fragment conjugate prepared in Example 2 was subjected to ELISA to evaluate the binding activity thereof to CEACAM5. In the present test, a phosphate buffer (Nacalai Tesque Inc., 0.1 mol/L-Phosphate Buffer Solution (pH 7.2)) prepared to 10 mM by diluting 10-fold with distilled water was used as a solvent for an antigen immobilization liquid, and 20×PBS/Tween 20 Buffer (Thermo Fisher Scientific Inc., 28352) diluted 20-fold with distilled water was used as a wash liquid. In addition, for bovine serum albumin (BSA) used in the present test, 30% Bovine Serum Albumin solution (Sigma-Aldrich, Inc., A9576-50ML) was added in an appropriate proportion for use. CEACAM5 (R&D Systems, 4128-CM-050) was diluted with a 10 mM phosphate buffer (pH 7.2) to 0.1 μg/mL, and added to a Nunc MaxiSorp White 384 plate (Nunc, 4603272) at 30 μL per well, and the plate was incubated overnight at 4° C. for immobilization. The CEACAM5 immobilization liquid was removed by reverse centrifugation, and then blocking was carried out by adding a PBS/Tween 20 buffer containing 5.0% BSA. Thereafter, the blocking solution was removed by reverse centrifugation, a solution of each CEACAM5 antibody Fab² fragment conjugate described above or a Fab² fragment having no labeling portion (PB009-01) as a control at about 10000 ng/mL was diluted in 14 steps by 3-fold dilution using a PBS/Tween 20 buffer containing 1.0% BSA, and 30 μL was added per well and incubated at room temperature for 60 minutes. The plate was washed 3 times with a PBS/Tween 20 buffer, and Horseradish Peroxidase (HRP)-labeled goat anti-human IgG (H+L chain) antibody (MBL Life Sciences, 206) diluted 1000-fold using a PBS/Tween 20 buffer containing 5.0% BSA was added at 30 μL per well and incubated at room temperature for 30 minutes. The plate was washed 3 times with a PBS/Tween 20 buffer, and ECL Prime Western Blotting DETECTION Reagent (GE Healthcare, RPN2232) as a substrate was added at 30 μL per well. The substrate was incubated at room temperature for 15 minutes, and then a signal value thereof was measured using an Envision counter (PerkinElmer, Inc.).
The test for each antibody was carried out in duplicate, and an EC₅₀ value was calculated using a 4-parameter logistic curve model.

| EC50 | Molecule |
| --- | --- |
| 0.23 nM | B9 |
| 0.15 nM | B10 |
| 0.25 nM | B11 |
| 0.28 nM | B12 |
| 0.29 nM | B13 |
| 0.23 nM | B14 |
